Measured values taken from patent publication EP4806905A1, “PEPTIDE, PEPTIDE COMPLEX, PHARMACEUTICAL COMPOSITION, COMPOSITION FOR CELL CULTURE, AND COMPOSITION FOR MEDICAL USE, DIAGNOSTIC USE, OR RESEARCH USE” (PeptiDream Inc., priority 2023, dated 2025).
Numbered stars: 1 amine (or outer) side, 2 acyl side, 3 side chain; on linkers, the order of the positions; unused ones are H or OH. Square brackets hold non-standard residues; d marks the D form. Ends that are not written are not given here. X1 = (S)‑3‑(2-carboxy-2-(methylamino)ethyl)benzoic acid, CN([C@@H](Cc1cccc(C(=O)[*:3])c1)C(=O)[*:2])[*:1]; Trp(7-aza) = N[C@@H](Cc1c[nH]c2ncccc12)C(=O)O; Ala(4-THP) = N[C@@H](CC1CCOCC1)C(=O)O; NMe4Pal = CN[C@@H](Cc1ccncc1)C(=O)O; NMeF = CN[C@@H](Cc1ccccc1)C(=O)O; Tic = O=C(O)[C@@H]1Cc2ccccc2CN1; Cit = NC(=O)NCCC[C@H](N)C(=O)O; NMeV = CN[C@H](C(=O)O)C(C)C

What was measured:
[1] = biological target: T1, Frizzled-2 (FZD2) (Mus musculus, UniProt Q9JIP6); assay: Evaluation of binding activity to Frizzled using ELISA (Frizzled-2); settings: peptide complex (linker structure number 9 added to the peptide) diluted to 10 nM; absorbance at 450 nm minus wells with no added peptide complex
T1 construct: purchased R&D systems 1307-FZ
Method: (§1) In order to evaluate the binding activity of the synthesized peptide complexes (peptide complexes having the linker structure number 9 added to peptide sequence numbers 1 to 78) to Frizzled, a binding activity evaluation using the ELISA method was conducted using the steps described below.
(§2) Biotin-labeled polyclonal anti-human IgG (eBioscience; 13-4998) was added to a streptavidin-coated 96-well plate (Thermo; 436014) in an amount of 200 µg per well, and left to stand for 30 minutes.
(§3) Following washing three times with PBS-T, 3 pmol of Fc-tagged Frizzled-2 (R&D systems; 1307-FZ), Frizzled-7 (R&D systems; 6178-FZ), or Frizzled-8 (R&D systems; 6129-FZ) was added per well and left to stand for 30 minutes to immobilize each Frizzled on the plate.
(§4) Following washing three times with PBS-T, the peptide complex diluted to 10 nM was added to Frizzled-2 and Frizzled-7, the peptide complex diluted to 500 nM was added to Frizzled-8, and the plate was left to stand for one hour.
(§5) Following washing three times with PBS-T, Anti-HA-tag mAb-HRP-Direct T (MBL; M180-7) that had been diluted 5000-fold with PBS-T was added and left to stand for 30 minutes.
(§6) Following washing three times with PBS-T, SureBlue TMB I-Component Microwell Peroxidase Substrate (SeraCare; 5120-0077) was added and left to stand for 10 minutes, and the reaction was then halted by adding an equal volume of TMB Stop Solution (SeraCare; 5150-0021).
(§7) Using an Infinite M Nano* (TECAN), the absorbance was measured at 450 nm. The binding signal for each peptide complex was calculated by subtracting the absorbance in those wells containing no added peptide complex from the absorbance in those wells containing the added peptide.

[2] = biological target: T2, Frizzled-7 (FZD7) (Homo sapiens, UniProt O75084); assay: Evaluation of binding activity to Frizzled using ELISA (Frizzled-7); settings: peptide complex (linker structure number 9 added to the peptide) diluted to 10 nM; absorbance at 450 nm minus wells with no added peptide complex
T2 construct: purchased R&D systems 6178-FZ
Method: as §1, §2, §3, §4, §5, §6, §7

[3] = biological target: T3, Frizzled-8 (FZD8) (Homo sapiens, UniProt Q9H461); assay: Evaluation of binding activity to Frizzled using ELISA (Frizzled-8); settings: peptide complex (linker structure number 9 added to the peptide) diluted to 500 nM; absorbance at 450 nm minus wells with no added peptide complex
T3 construct: purchased R&D systems 6129-FZ
T3 sequence (Q9H461 28-158 limits assumed): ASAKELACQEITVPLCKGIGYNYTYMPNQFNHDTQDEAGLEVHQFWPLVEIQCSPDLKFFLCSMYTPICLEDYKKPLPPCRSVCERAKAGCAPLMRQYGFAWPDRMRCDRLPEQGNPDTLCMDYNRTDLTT
Method: as §1, §2, §3, §4, §5, §6, §7

[4] = test system: TCF/LEF Reporter-HEK 293 cells; assay: Evaluation of Wnt signal activation capability, TCF/LEF reporter assay; assay type: cell-based; settings: dimer structure numbers 1 to 43; classes 2-A to 2-E; tested at 0.1/1/10/100/1,000 nM depending on the dimer
Method: In order to evaluate the Wnt signal activation capability of each of the synthesized peptide complexes (dime structure numbers 1 to 67), transcriptional activity was evaluated using a TCF/LEF reporter.
TCF/LEF Reporter-HEK 293 cells (BPS Bioscience) were cultured in EMEM (Fuji FILM) containing 10% FBS (Thermo Fisher Scientific), 50 µg/mL Gentamicin (Nacalai Tesque), and 400 µg/mL Geneticin (Thermo Fisher Scientific).
The cells were detached using TrypLE (Thermo Fisher Scientific) and then suspended in EMEM containing 10% FBS, 50 µg/mL Gentamicin, and 10 mM LiCl (Sigma).
The cells were seeded into a white 96-well plate (Thermo Fisher Scientific) for cell adhesion and luminescence detection at a rate of 35,000 cells per well, and were then cultured overnight.
Subsequently, Recombinant Human Wnt-3a Protein (R&D systems) or a peptide complex was added in the presence of 1 nM Recombinant Human R-spondin 1 (R&D systems), and stimulation was conducted for 5 hours and 30 minutes in a CO2 incubator at 37°C.
The ONE-Glo Luciferase Assay System (Peomega) was added and shaken for 4 minutes, and the resulting luminescent signals were detected using a SpectraMax Paradigm multimode microplate reader (Molecular Devices).
The thus obtained signals were analyzed using a GraphPad Prism, and the percentage activity was calculated with the maximum value of the signal value induced by Wnt3a deemed to be 100% and the signal value with no stimulus deemed to be 0%. Evaluations were conducted with the Wnt concentration within a range from […] to determine the 100% value.
For each dimer structure number, tests were conducted using the peptide complex addition concentrations described below. • a) For dimer structure number 1, 1 nM, 10 nM, 100 nM, and 1,000 nM • b) For dimer structure numbers 2 to 4, 1 nM, 10 nM, and 100 nM • c) For dimer structure numbers 5 to 14, 0.1 nM, 1 nM, 10 nM, and 100 nM • d) For dimer structure numbers 15 to 43, 0.1 nM, 1 nM, and 10 nM • e) For dimer strength numbers 44 to 56, six points starting at 30 nM and then reducing by a common ratio of 1/4 (0.03 nM, 0.12 nM, 0.47 nM, 1.9 nM, 7.5 nM and 30 nM) • f) For dimer strength numbers 57 to 67, six points starting at 30 nM and then reducing by a common ratio of 1/5 (0.0096, 0.048, 0.24, 1.2, 6.0, and 30 nM)

Row | ELISA signal Frizzled-2 (FZD2) [1] | ELISA signal Frizzled-7 (FZD7) [2] | ELISA signal Frizzled-8 (FZD8) [3] | Substance | TCF/LEF Reporter Assay Result [4]
1 | 1.7 | 1.7 | 1.5 | Dimer structure number 66: dimer of peptide SEQ ID NO: 76 and peptide SEQ ID NO: 163 via linker structure number 3 (chain 1 [dF]S[Cit]IRY[NMeF]VT[NMe4Pal]I[NMeV][dS]CG; chain 2 FR[Trp(7-aza)]DVR[X1]SE[Trp(7-aza)]N[Tic]DCG; not fully specified; cysteine pairing not given here; also: dimer via linker structure number 3, attachment not given here) | 2-B (peptide complexes that exhibited 50% or more activity when 1 nM of the peptide complex was added)
2 | 0.3 | 0.3 | 0.0 | Dimer structure number 46: dimer of peptide SEQ ID NO: 35 and peptide SEQ ID NO: 79 via linker structure number 8 (chain 1 [dF]S[Ala(4-THP)]IRY[NMeF]VT[NMeF]I[NMeV]GCG; chain 2 FRWDVR[NMeF]SNWN[Tic]NCG; cysteine pairing not given here; also: dimer via linker structure number 8, attachment not given here) | 2-C (peptide complexes that exhibited 50% or more activity when 10 nM of the peptide complex was added)
3 | 1.5 | 1.4 | 0.7 | df-S-D-I-R-Y-MeF-V-T-MeF-I-MeV-ds-C-G ([dF]SDIRY[NMeF]VT[NMeF]I[NMeV][dS]CG) [Peptide sequence number 66] | 2-C (peptide complexes that exhibited 50% or more activity when 10 nM of the peptide complex was added)
4 | 0.0 | 0.0 | 0.4 | Peptide sequence number 99: peptide of formula B3, amino acid residues shown in Table 2 (FRWDVR[NMeF]SN[Trp(7-aza)]N[Tic]NCG) | 2-C (peptide complexes that exhibited 50% or more activity when 10 nM of the peptide complex was added)
